Measured values from article PMC7831021 (2021).
Bridges are numbered along the chain shown (N, C = ends). Where no end group is shown, it is not given here.

Biological target: beta-2-microglobulin (Homo sapiens, UniProt P61769)
Assay: SPR

beta-2-microglobulin, sequence (P61769 22-119): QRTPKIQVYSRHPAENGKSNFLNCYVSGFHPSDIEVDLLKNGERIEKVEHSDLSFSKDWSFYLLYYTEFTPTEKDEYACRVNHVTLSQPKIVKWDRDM

Kd: 300 µM
B1: pep331 (peptide)
chain: CFETAWRQNEWC
modifications: disulfide 1-12 (inferred)
